“And” between values parts separate entries of the source, which are not always exact repeats. Equal entries are not always repeated.
B1: Pih1p-Tah1p complex (His-tagged Pih1p, non-tagged Tah1p) (complex, Saccharomyces cerevisiae)
chain 1: MADFLLRPIKQRHRNEDKYVSVDAADGSVSKIEPIADFVIKTKLLSANGPEKLQDGRKVFINVCHSPLVPKPEVDFNARIVFPLIIQNEWEIPIITSCYRMDHDKKGQECYVWDCCINSDCSRWICDDIQLREILVEWCLESCEIRDSVVLCRDRIAFPKMKKKGAELPALEVLNDELHQDYKAKMHKIIEEEAGDPMSILRGRNDDGDDNNDPDDGTLPPLFPIENKISGAKIEEIDKNEIAHRNLKQAPAPAPAPHEQQEDVPEYEVKMKRFKGAAYKLRILIENKAPNSKPDRFSPSYNFAENILYINGKLSIPLPRDIVVNAADIKIFHIRKERTLYIYI
chain 2: MSQFEKQKEQGNSLFKQGLYREAVHCYDQLITAQPQNPVGYSNKAMALIKLGEYTQAIQMCQQGLRYTSTAEHVAIRSKLQYRLELAQGAVGSVQIPVVEVDELPEGYDRS
B2: Pih1p (His-tagged) (natural protein, Saccharomyces cerevisiae, UniProt P38768 1-344, looked up)
chain: B1 chain 1
B3: Pih1p 1–284 fragment (domain or fragment, Saccharomyces cerevisiae, UniProt P38768 1-284, looked up)
chain: MADFLLRPIKQRHRNEDKYVSVDAADGSVSKIEPIADFVIKTKLLSANGPEKLQDGRKVFINVCHSPLVPKPEVDFNARIVFPLIIQNEWEIPIITSCYRMDHDKKGQECYVWDCCINSDCSRWICDDIQLREILVEWCLESCEIRDSVVLCRDRIAFPKMKKKGAELPALEVLNDELHQDYKAKMHKIIEEEAGDPMSILRGRNDDGDDNNDPDDGTLPPLFPIENKISGAKIEEIDKNEIAHRNLKQAPAPAPAPHEQQEDVPEYEVKMKRFKGAAYKLRIL
B4: Nop58p_447 (truncated Nop58p, residues 1–447) (domain or fragment, Saccharomyces cerevisiae, UniProt Q12499 1-447, looked up)
chain: MAYVLTETSAGYALLKASDKKIYKSSSLIQDLDSSDKVLKEFKIAAFSKFNSAANALEEANSIIEGKVSSQLEKLLEEIKKDKKSTLIVSETKLANAINKLGLNFNVVSDAVTLDIYRAIKEYLPELLPGMSDNDLSKMSLGLAHSIGRHKLKFSADKVDVMIIQAIALLDDLDKELNTYAMRCKEWYGWHFPELAKIVTDSVAYARIILTMGIRSKASETDLSEILPEEIEERVKTAAEVSMGTEITQTDLDNINALAEQIVEFAAYREQLSNYLSARMKAIAPNLTQLVGELVGARLIAHSGSLISLAKSPASTIQILGAEKALFRALKTKHDTPKYGLLYHASLVGQATGKNKGKIARVLAAKAAVSLRYDALAEDRDDSGDIGLESRAKVENRLSQLEGRDLRTTPKVVREAKKVEMTEARAYNADADTAKAASDSESDSDDE
B5: Rvb1/2p complex (tag-free) (complex, Saccharomyces cerevisiae)
chain 1: MVAISEVKENPGVNSSNSGAVTRTAAHTHIKGLGLDESGVAKRVEGGFVGQIEAREACGVIVDLIKAKKMSGRAILLAGGPSTGKTALALAISQELGPKVPFCPLVGSELYSVEVKKTETLMENFRRAIGLRIKETKEVYEGEVTELTPEDAENPLGGYGKTISHVIVGLKSAKGTKTLRLDPTIYESIQREKVSIGDVIYIEANTGAVKRVGRSDAYATEFDLETEEYVPLPKGEVHKKKEIVQDVTLHDLDVANARPQGGQDVISMMGQLLKPKKTEITEKLRQEVNKVVAKYIDQGVAELIPGVLFIDEVNMLDIEIFTYLNKALESNIAPVVVLASNRGMTTVRGTEDVISPHGVPPDLIDRLLIVRTLPYDKDEIRTIIERRATVERLQVESSALDLLATMGTETSLRYALQLLAPCGILAQTSNRKEIVVNDVNEAKLLFLDAKRSTKILETSANYL
chain 2: MSIQTSDPNETSDLKSLSLIAAHSHITGLGLDENLQPRPTSEGMVGQLQARRAAGVILKMVQNGTIAGRAVLVAGPPSTGKTALAMGVSQSLGKDVPFTAIAGSEIFSLELSKTEALTQAFRKSIGIKIKEETELIEGEVVEIQIDRSITGGHKQGKLTIKTTDMETIYELGNKMIDGLTKEKVLAGDVISIDKASGKITKLGRSFARSRDYDAMGADTRFVQCPEGELQKRKTVVHTVSLHEIDVINSRTQGFLALFTGDTGEIRSEVRDQINTKVAEWKEEGKAEIVPGVLFIDEVHMLDIECFSFINRALEDEFAPIVMMATNRGVSKTRGTNYKSPHGLPLDLLDRSIIITTKSYNEQEIKTILSIRAQEEEVELSSDALDLLTKTGVETSLRYSSNLISVAQQIAMKRKNNTVEVEDVKRAYLLFLDSARSVKYVQENESQYIDDQGNVQISIAKSADPDAMDTTE
B6: DII-truncated Rvb2p (deleting residues 134–234) (natural protein, Saccharomyces cerevisiae, UniProt Q12464 1-471, looked up)
chain: MSIQTSDPNETSDLKSLSLIAAHSHITGLGLDENLQPRPTSEGMVGQLQARRAAGVILKMVQNGTIAGRAVLVAGPPSTGKTALAMGVSQSLGKDVPFTAIAGSEIFSLELSKTEALTQAFRKSIGIKIKEETVVHTVSLHEIDVINSRTQGFLALFTGDTGEIRSEVRDQINTKVAEWKEEGKAEIVPGVLFIDEVHMLDIECFSFINRALEDEFAPIVMMATNRGVSKTRGTNYKSPHGLPLDLLDRSIIITTKSYNEQEIKTILSIRAQEEEVELSSDALDLLTKTGVETSLRYSSNLISVAQQIAMKRKNNTVEVEDVKRAYLLFLDSARSVKYVQENESQYIDDQGNVQISIAKSADPDAMDTTE

Key:
[1] = biological target: B5; assay: ITC
Rvb2p (non-tagged) = Rvb2p (non-tagged) (Saccharomyces cerevisiae, UniProt Q12464 1-471); assay: pull-down
[2] = biological target: B5; assay: label-free quantitative mass spectrometry
[3] = biological target: B4; assay: cross-linking
Rvb1p (non-tagged) [4] = biological target: T1, Rvb1p (non-tagged) (Saccharomyces cerevisiae, UniProt Q03940 1-463); assay: cross-linking
[5] = biological target: B5; assay: AUC
[6] = biological target: ScR2TP complex (Rvb1p, Rvb2p, His-Pih1p, Tah1p) (Saccharomyces cerevisiae, UniProt Q03940 1-463; Q12464 1-471; P38768 1-344; P25638 1-111); assay: AUC
AUC = biological target: the molecule itself; assay: AUC
Rvb1p (non-tagged) [7] = biological target: T1, Rvb1p (non-tagged); assay: pull-down

Binder: B1
- KD of the first of two serial sites (KD^1), apparent [1]: 155 nM
- KD of the second of two serial sites (KD^2), apparent [1]: 1200 nM
- binding result (Rvb2p (non-tagged)): binds
- stoichiometry N [2]: 1.6 Pih1p per 3 Rvb1p and 3 Rvb2p and 0.5 Tah1p per 3 Rvb1p

Binder: B2
- binding result [3]: binds
- binding result (Rvb1p (non-tagged) [4]): binds

Binder: B3
- binding result [5]: binds

Binder: B4
- binding result [6]: binds

Binder: B5
- binding result (AUC): binds

Binder: B6
- binding result (Rvb1p (non-tagged) [7]): binds

Reference: paper PMC6625358 (Structure (London, England : 1993), 2017)
